In the supplement of paper PMC9112550, “Optimization of the antimicrobial peptide Bac7 by deep mutational scanning” (BMC Biology, 2022):

Test system: Escherichia coli TOP10
Experiment: shrunken log2 fold change of peptide-encoding DNA abundance (4.5 h post-induction vs induction); higher = less antimicrobial activity (less host growth inhibition)
Conditions: time post-induction: 4.5 h; library: site-saturation at positions 5, 18, 19, 20
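Note: peptides expressed intracellularly from a pBAD plasmid library in pooled LB shake-flask culture, induced with 0.3% L-arabinose, DNA abundance read by NGS, three biological replicates, DESeq2 with apeglm shrinkage.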

Row | Sequence | shrunken log2 fold change
1 | RRIRQRPPRLPRPRPRPGAYPRP | -0.506
2 | RRIRWRPPRLPRPRPRPGITPRP | 0.0178
3 | RRIRARPPRLPRPRPRPKAKPRP | 0.287
4 | RRIRERPPRLPRPRPRPYKKPRP | 0.0359
5 | RRIRWRPPRLPRPRPRPVVQPRP | -0.131
6 | RRIRERPPRLPRPRPRPLGKPRP | 0.189
7 | RRIRARPPRLPRPRPRPSWQPRP | 0.223
8 | RRIRVRPPRLPRPRPRPFRHPRP | -0.185
9 | RRIRDRPPRLPRPRPRPQKDPRP | -0.294
10 | RRIRARPPRLPRPRPRPARRPRP | 0.388
11 | RRIRKRPPRLPRPRPRPLLAPRP | 0.833
12 | RRIRERPPRLPRPRPRPLSYPRP | -0.193
13 | RRIRSRPPRLPRPRPRPWQDPRP | -0.136
14 | RRIRERPPRLPRPRPRPVFKPRP | -0.228
15 | RRIRERPPRLPRPRPRPLFPPRP | -0.264
16 | RRIRFRPPRLPRPRPRPTYYPRP | -0.421
17 | RRIRHRPPRLPRPRPRPELVPRP | 0.177
18 | RRIRLRPPRLPRPRPRPAIWPRP | 0.016
19 | RRIRIRPPRLPRPRPRPGANPRP | 0.0193
20 | RRIRVRPPRLPRPRPRPMYCPRP | -0.233
21 | RRIRRRPPRLPRPRPRPPSRPRP | 0.446
22 | RRIRSRPPRLPRPRPRPPHFPRP | 0.503
23 | RRIRRRPPRLPRPRPRPRKDPRP | 0.302
24 | RRIRWRPPRLPRPRPRPDIFPRP | -0.029
25 | RRIRCRPPRLPRPRPRPALEPRP | -0.00844

Row | Sequence | shrunken log2 fold change
26 | RRIRGRPPRLPRPRPRPLPAPRP | 1.33
27 | RRIRNRPPRLPRPRPRPFACPRP | 0.0153
28 | RRIRLRPPRLPRPRPRPQISPRP | -0.272
29 | RRIRDRPPRLPRPRPRPLLRPRP | 0.0308
30 | RRIRDRPPRLPRPRPRPGNVPRP | -0.0882
31 | RRIRQRPPRLPRPRPRPAVLPRP | 0.0386
32 | RRIRTRPPRLPRPRPRPWMPPRP | -0.247
33 | RRIRNRPPRLPRPRPRPLNWPRP | -0.269
34 | RRIRIRPPRLPRPRPRPNYRPRP | -0.00601
35 | RRIRCRPPRLPRPRPRPRYTPRP | -0.37
36 | RRIRMRPPRLPRPRPRPGISPRP | 0.0451
37 | RRIRSRPPRLPRPRPRPVMLPRP | -0.112
38 | RRIRRRPPRLPRPRPRPAWQPRP | 0.561
39 | RRIRERPPRLPRPRPRPMFWPRP | 0.0831
40 | RRIRRRPPRLPRPRPRPHHVPRP | 0.296
41 | RRIRFRPPRLPRPRPRPPDEPRP | 0.684
42 | RRIRCRPPRLPRPRPRPDLPPRP | -0.265
43 | RRIRKRPPRLPRPRPRPVMAPRP | 0.588
44 | RRIRFRPPRLPRPRPRPQHVPRP | -0.315
45 | RRIRWRPPRLPRPRPRPLSQPRP | 0.0157
46 | RRIRMRPPRLPRPRPRPFANPRP | -0.0062
47 | RRIRQRPPRLPRPRPRPTQEPRP | 0.124
48 | RRIRARPPRLPRPRPRPMSCPRP | -0.114
49 | RRIRWRPPRLPRPRPRPWNQPRP | -0.067
50 | RRIRPRPPRLPRPRPRPPYYPRP | -0.492

Row | Sequence | shrunken log2 fold change
51 | RRIRWRPPRLPRPRPRPHVSPRP | -0.0109
52 | RRIRPRPPRLPRPRPRPGSIPRP | -0.261
53 | RRIRIRPPRLPRPRPRPQMNPRP | -0.887
54 | RRIRYRPPRLPRPRPRPHPYPRP | -0.449
55 | RRIRGRPPRLPRPRPRPPAWPRP | 1.34
56 | RRIRNRPPRLPRPRPRPVAIPRP | -0.507
57 | RRIRSRPPRLPRPRPRPPSTPRP | 0.141
58 | RRIRWRPPRLPRPRPRPWYRPRP | -0.174
59 | RRIRFRPPRLPRPRPRPKWCPRP | -0.183
60 | RRIRKRPPRLPRPRPRPQGLPRP | 0.256
61 | RRIRWRPPRLPRPRPRPTPFPRP | 0.153
62 | RRIRLRPPRLPRPRPRPKRIPRP | 0.109
63 | RRIRTRPPRLPRPRPRPFCYPRP | -0.24
64 | RRIRKRPPRLPRPRPRPQLLPRP | 0.261
65 | RRIRWRPPRLPRPRPRPIWCPRP | 0.151
66 | RRIRKRPPRLPRPRPRPYSFPRP | -0.119
67 | RRIRVRPPRLPRPRPRPAINPRP | -0.259
68 | RRIRCRPPRLPRPRPRPEHQPRP | 0.0614
69 | RRIRYRPPRLPRPRPRPITCPRP | 0.014
70 | RRIRIRPPRLPRPRPRPDCYPRP | -0.226
71 | RRIRNRPPRLPRPRPRPCRLPRP | -0.0199
72 | RRIRNRPPRLPRPRPRPTPQPRP | 0.232
73 | RRIRMRPPRLPRPRPRPDPKPRP | -0.000946
74 | RRIRYRPPRLPRPRPRPPYEPRP | -0.0831
75 | RRIRRRPPRLPRPRPRPPYLPRP | 0.0685
